The chains are these.
B1: recombinant monkey TfR (r monkey TfR: Sino Biological Inc.), crab-eating monkey TfR extracellular region with a histidine tag at the N-terminus (receptor)
chain: CKGVEPKTECERLAGTESPAREEPEEDFPAAPRLYWDDLKRKLSEKLDTTDFTSTIKLLNENLYVPREAGSQKDENLALYIENQFREFKLSKVWRDQHFVKIQVKDSAQNSVIIVDKNGGLVYLVENPGGYVAYSKAATVTGKLVHANFGTKKDFEDLDSPVNGSIVIVRAGKITFAEKVANAESLNAIGVLIYMDQTKFPIVKADLSFFGHAHLGTGDPYTPGFPSFNHTQFPPSQSSGLPNIPVQTISRAAAEKLFGNMEGDCPSDWKTDSTCKMVTSENKSVKLTVSNVLKETKILNIFGVIKGFVEPDHYVVVGAQRDAWGPGAAKSSVGTALLLKLAQMFSDMVLKDGFQPSRSIIFASWSAGDFGSVGATEWLEGYLSSLHLKAFTYINLDKAVLGTSNFKVSASPLLYTLIEKTMQDVKHPVTGRSLYQDSNWASKVEKLTLDNAAFPFLAYSGIPAVSFCFCEDTDYPYLGTTMDTYKELVERIPELNKVARAAAEVAGQFVIKLTHDTELNLDYERYNSQLLLFLRDLNQYRADVKEMGLSLQWLYSARGDFFRATSRLTTDFRNAEKRDKFVMKKLNDRVMRVEYYFLSPYVSPKESPFRHVFWGSGSHTLSALLESLKLRRQNNSAFNETLFRNQLALATWTIQGAANALSGDVWDIDNEF
notes: Bought from Sino Biological; also called r monkey TfR-ECD (Histag); not shown: histidine tag at the N-terminus

The target of experiment [1] is T1, Fab GS-GAA (fusion protein between Fab anti-hTfR antibody 3N and hGAA).
T1 construct: also called Fab GS3-GAA; Fab-GS3-GAA
In words: BLI (Octet RED96), His-tagged TfR ECD on Ni-NTA sensor; Table 17-2, Fab GS-GAA.

For experiment [2], the target named is T1, Fab GS-GAA (fusion protein between Fab …). In words: BLI (Octet RED96), His-tagged TfR ECD on Ni-NTA sensor; Table 21, Fab-GS3-GAA.
Experiment [3] has the same target. In words: BLI (Octet RED96), His-tagged TfR ECD on Ni-NTA sensor. The protocol: (§1) Each of the sample solutions prepared above by 2-fold dilution steps was added, 200 μL/well, to a 96-well plate, black (Greiner Bio-One Inc.). Each of the r human TfR-ECD (Histag) solution and the r monkey TfR-ECD (Histag) solutions prepared above was added, 200 μL/well, to predetermined wells. To respective wells for baseline, dissociation and washing were added HBS-P+, 200 μL/well. To wells for regeneration were added 10 mM Glycine-HCl (pH 1.7), 200 μL/well. To wells for activation was added 0.5 mM NiCl₂ solution, 200 μL/well. The plate and biosensor (Biosensor/Ni-NTA: ForteBio Inc., a division of Pall Corporation) were set in the prescribed positions of Octet RED96.
(§2) The measurement was performed at 25 to 30° C.
(§3) The affinity of the hGAA-anti-hTfR antibody 3N (IgG4) obtained in Example 26 to human TfR and monkey TfR was measured in accordance with the method described in Example 23.

Experiment [4] addresses hGAA-anti-hTfR antibody 3N (IgG4). The description is as above. As to the method: as §1, §2, §3
Experiment [5] deals with B1. The description is as above. The protocol: (§4) The purified product of anti-hTfR antibody No. 3 was subjected to 2-fold dilution steps with HBS-P+ (10 mM HEPES containing 150 mM NaCl, 50 μM EDTA and 0.05% Surfactant P20) to prepare antibody solutions of 7 different concentrations, 0.78125 to 50 nM (0.117 to 7.5 μg/mL). The antibody solution was used as the sample solution. The r human and r monkey TfRs were respectively diluted with HBS-P+ to prepare 25 μg/mL solutions, which were used as r human TfR-ECD (Histag) solution and r monkey TfR-ECD (Histag) solution, respectively.
as §1, §2

In experiment [6] the target is T2, recombinant human TfR (r human TfR: Sino Biological Inc.), hTfR extracellular region with a histidine tag at … (human, UniProt P02786 89-760).
T2 construct: Bought from Sino Biological; also called r human TfR-ECD (Histag); recombinant hTfR; not shown: histidine tag at the N-terminus
The description is as above. The protocol:
as §4, §1, §2

Experiment [7] addresses B1. Described as above. The protocol: as §1, §2
(§5) The affinity of the humanized anti-hTfR antibodies obtained in Example 13 to human and monkey TfRs was measured by the method described in Example 7.

The target of experiment [8] is T2, recombinant human TfR (r human TfR: …). The description is as above. The protocol: as §1, §2, §5
The source holds these as a separate data set.

For experiment [9] the target is unchanged. The description is as above. As to the method: as §1, §2
The affinity of humanized anti-hTfR antibody No. 3 obtained in Example 13 and humanized anti-hTfR antibody No. 3N obtained in Example 17 to […] was measured by the method described in Example 7. […] Besides, the measurement indicating the affinity of humanized anti-hTfR antibody No. 3 to human TfR differed from that shown in Table 6, but is an experimental error.
This is another data set of the same source.

Experiment [10] has as its target B1. The description is as above. The protocol: as §1, §2
The affinity of humanized anti-hTfR antibody No. 3 obtained in Example 13 and humanized anti-hTfR antibody No. 3N obtained in Example 17 to human TfR and monkey TfR was measured by the method described in Example 7. […] Besides, the measurement indicating the affinity of humanized anti-hTfR antibody No. 3 to monkey TfR differed from that shown in Table 7, but is an experimental error.

For experiment [11], the target named is B1. In words: BLI (Octet RED96).

The record followed here is patent US20250026846A1 (JCR PHARMACEUTICALS, published 2025).

Like-named read-outs stand apart in the source and are kept apart here. Bounds are passed on as bounds.

Sequence of hGAA-anti-hTfR antibody 3N (IgG4) (heavy, as listed by the source, chain 2 of 2, one chain of several): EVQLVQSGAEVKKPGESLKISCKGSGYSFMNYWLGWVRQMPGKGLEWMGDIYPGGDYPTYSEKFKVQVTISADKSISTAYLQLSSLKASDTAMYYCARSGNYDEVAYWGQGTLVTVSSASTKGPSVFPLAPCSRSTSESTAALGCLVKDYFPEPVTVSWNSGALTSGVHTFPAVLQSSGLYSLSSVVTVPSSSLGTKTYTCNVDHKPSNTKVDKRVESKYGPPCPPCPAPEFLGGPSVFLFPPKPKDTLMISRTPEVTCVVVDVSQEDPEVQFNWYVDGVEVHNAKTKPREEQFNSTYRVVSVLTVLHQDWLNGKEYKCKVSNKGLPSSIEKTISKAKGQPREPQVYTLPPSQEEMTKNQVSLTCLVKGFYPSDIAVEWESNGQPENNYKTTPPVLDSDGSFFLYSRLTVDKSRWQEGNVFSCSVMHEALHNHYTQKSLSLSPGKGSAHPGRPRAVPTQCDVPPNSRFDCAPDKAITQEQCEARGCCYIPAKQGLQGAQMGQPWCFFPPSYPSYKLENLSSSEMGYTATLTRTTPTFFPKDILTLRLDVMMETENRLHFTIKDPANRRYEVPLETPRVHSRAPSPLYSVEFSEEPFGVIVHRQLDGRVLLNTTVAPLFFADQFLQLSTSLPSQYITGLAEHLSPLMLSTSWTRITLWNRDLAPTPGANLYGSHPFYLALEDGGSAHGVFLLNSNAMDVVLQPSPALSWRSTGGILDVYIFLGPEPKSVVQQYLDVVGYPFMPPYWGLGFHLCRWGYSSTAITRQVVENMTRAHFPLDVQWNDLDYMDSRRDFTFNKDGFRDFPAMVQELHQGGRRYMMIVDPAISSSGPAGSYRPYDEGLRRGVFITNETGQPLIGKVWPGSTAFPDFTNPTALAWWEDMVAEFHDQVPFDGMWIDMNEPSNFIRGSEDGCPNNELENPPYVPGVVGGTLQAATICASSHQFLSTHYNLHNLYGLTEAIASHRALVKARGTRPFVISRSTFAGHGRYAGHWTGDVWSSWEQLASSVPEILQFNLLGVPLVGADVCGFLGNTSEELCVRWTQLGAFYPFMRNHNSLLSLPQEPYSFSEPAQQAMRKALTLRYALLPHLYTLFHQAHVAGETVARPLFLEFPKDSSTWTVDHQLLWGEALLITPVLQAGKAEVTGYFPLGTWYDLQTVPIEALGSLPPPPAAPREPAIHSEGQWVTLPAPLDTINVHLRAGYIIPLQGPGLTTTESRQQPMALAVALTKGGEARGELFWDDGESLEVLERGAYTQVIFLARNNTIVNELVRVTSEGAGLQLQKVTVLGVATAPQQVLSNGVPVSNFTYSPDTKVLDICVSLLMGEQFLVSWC
T1 sequence (heavy, as listed by the source, chain 2 of 2, one chain of several): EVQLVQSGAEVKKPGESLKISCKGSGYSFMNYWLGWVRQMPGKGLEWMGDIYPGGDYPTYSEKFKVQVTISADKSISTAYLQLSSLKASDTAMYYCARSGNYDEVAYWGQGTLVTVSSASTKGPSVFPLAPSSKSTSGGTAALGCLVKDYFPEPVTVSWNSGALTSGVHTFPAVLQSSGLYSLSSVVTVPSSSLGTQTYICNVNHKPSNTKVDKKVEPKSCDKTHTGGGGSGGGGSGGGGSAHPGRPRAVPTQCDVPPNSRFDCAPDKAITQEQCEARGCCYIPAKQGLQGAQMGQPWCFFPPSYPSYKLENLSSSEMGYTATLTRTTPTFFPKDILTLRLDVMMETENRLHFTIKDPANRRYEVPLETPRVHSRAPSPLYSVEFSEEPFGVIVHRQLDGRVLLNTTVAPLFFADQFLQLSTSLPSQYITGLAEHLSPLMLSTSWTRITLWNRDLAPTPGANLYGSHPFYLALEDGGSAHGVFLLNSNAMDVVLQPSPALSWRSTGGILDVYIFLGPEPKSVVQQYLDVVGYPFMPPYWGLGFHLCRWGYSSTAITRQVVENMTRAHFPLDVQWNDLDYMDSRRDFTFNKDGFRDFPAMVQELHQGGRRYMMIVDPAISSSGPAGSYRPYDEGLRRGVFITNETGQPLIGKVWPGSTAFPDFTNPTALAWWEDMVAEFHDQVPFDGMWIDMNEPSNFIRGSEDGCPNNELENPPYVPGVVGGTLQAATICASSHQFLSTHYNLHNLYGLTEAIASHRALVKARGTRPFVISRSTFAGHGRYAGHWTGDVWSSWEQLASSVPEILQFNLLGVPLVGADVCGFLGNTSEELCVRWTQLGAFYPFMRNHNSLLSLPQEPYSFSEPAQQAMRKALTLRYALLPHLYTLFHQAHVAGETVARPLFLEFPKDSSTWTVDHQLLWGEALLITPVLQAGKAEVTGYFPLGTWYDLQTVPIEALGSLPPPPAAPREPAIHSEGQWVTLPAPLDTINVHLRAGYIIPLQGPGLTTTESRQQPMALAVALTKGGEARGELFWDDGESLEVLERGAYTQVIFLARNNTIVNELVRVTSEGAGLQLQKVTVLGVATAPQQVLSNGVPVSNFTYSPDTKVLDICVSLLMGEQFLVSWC

For the molecule B1, the figures for the Kd in experiment [1], in experiment [2] and in [4] were 15.2 nM, 30.5 nM and less than 0.001 nM, respectively. In addition, the koff was 0.0145 s⁻¹ in experiment [2], 0.00501 s⁻¹ in experiment [3] and less than 1e-07 s⁻¹ in experiment [4]. Further, the kon in [2] was 473000 M⁻¹ s⁻¹; in experiment [3] it was 329000 M⁻¹ s⁻¹; in experiment [4], 203000 M⁻¹ s⁻¹.

B2: anti-hTfR antibody No. 3 (mouse antibody produced by hybridoma Clone 3 line) (antibody, V domains shown)
VH: EVQLQESGAELVRPGTSVKISCKASGYSFTNYWLGWVKQRPGHGLEWIGDIYPGGDYPTYSEKFKVKAILTADTSSSSVYLHLSSLTSEDSAVYFCARSGNYDEVAYWGQGTLVTVST
VL: DIVMTQTTLSLPVSLGDQASISCRSSQSLVHSNGNTYLHWYLQKPGQSPKLLIYKVSNRFSGVPDRFSGSGSGTDFTLKISRVEAEDLGVFFCSQSTHVPWTFGGGTKLEIKR
notes: Whole mouse antibody purified from hybridoma supernatant on Protein G; also called mouse anti-hTfR antibody No. 3; pre-humanized anti-hTfR antibody
B2: in experiment [5], the Kd is less than 0.001 nM, the koff is less than 1e-07 s⁻¹ and the kon turned out to be 389000 M⁻¹ s⁻¹. Also, in experiment [6], the Kd is less than 0.001 nM, the koff was less than 1e-07 s⁻¹ and the kon is 653000 M⁻¹ s⁻¹.

B3: humanized anti-hTfR antibody No. 3 (antibody, human IgG1, kappa)
light: DIVMTQTPLSLSVTPGQPASISCRSSQSLVHSNGNTYLHWYLQKPGQSPQLLIYKVSNRFSGVPDRFSGSGSGTDFTLKISRVEAEDVGVYYCSQSTHVPWTFGQGTKVEIKRTVAAPSVFIFPPSDEQLKSGTASVVCLLNNFYPREAKVQWKVDNALQSGNSQESVTEQDSKDSTYSLSSTLTLSKADYEKHKVYACEVTHQGLSSPVTKSFNRGEC
heavy: not shown
notes: IgG1; Expressed from pE-hygr(LC3) and pE-neo(HC3) in CHO cells; also called Humanized anti-hTfR antibody 3
Regarding B3, the Kd in experiment [7] is 1.12 nM; in experiment [8], less than 0.001 nM; in experiment [9], less than 0.001 nM; in [10], 1.32 nM. The koff in experiment [7] was 0.000676 s⁻¹; in experiment [8], less than 1e-07 s⁻¹; in experiment [9], less than 1e-07 s⁻¹; in experiment [10], 0.000806 s⁻¹. For the same molecule, the kon in experiment [7] was found to be 603000 M⁻¹ s⁻¹; in [8], 1.19e+06 M⁻¹ s⁻¹; in experiment [9], 847000 M⁻¹ s⁻¹; in experiment [10], 609000 M⁻¹ s⁻¹.

B4: humanized anti-hTfR antibody No. 3N (antibody, human IgG1, kappa, V domains shown)
VH: EVQLVQSGAEVKKPGESLKISCKGSGYSFMNYWLGWVRQMPGKGLEWMGDIYPGGDYPTYSEKFKVQVTISADKSISTAYLQLSSLKASDTAMYYCARSGNYDEVAYWGQGTLVTVSS
VL: DIVMTQTPLSLSVTPGQPASISCRSSQSLVHSNGNTYLHWYLQKPGQSPQLLIYKVSNRFSGVPDRFSGSGSGTDFTLKISRVEAEDVGVYYCSQSTHVPWTFGQGTKVEIKR
notes: IgG1; also called Humanized anti-hTfR antibody 3N
Regarding B4, in [11], the “KD relative to that of humanized anti-hTfR antibody No. 3” value was approximately 0.033 fold and the “fold affinity against humanized anti-hTfR antibody No. 3” value is approximately 30 fold. Also, in [9], the equilibrium dissociation constant (Kd) was less than 0.001 nM, the koff is less than 1e-07 s⁻¹ and the kon came to 784000 M⁻¹ s⁻¹. In experiment [10], the Kd was 0.0507 nM, the koff is 1.96e-05 s⁻¹ and the kon was determined as 386000 M⁻¹ s⁻¹.
